Assay results: the supplement of paper PMC10567573

B1: INTS3 (parent)
chain: AQLQALRQKEVDFCISLLRERFME
B2: TRAF3IP2 (parent)
chain: YGHDYPRAAYQQVIQPALPGQPLP

Variants of: B1
Experiment: protein stability index of a GFP-peptide fusion (GPS, HEK-293T) (PSI 1-6); higher = more stable
Conditions: c terminus: a fixed tail appended
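Also: lentivirally expressed fusions sorted by FACS into six bins by GFP to DsRed ratio, PSI derived from sequencing read proportions per bin multiplied by bin number.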

Question: With AQLQALRQKEVDFQISLLRERFME [C14Q] as the variant, how does the protein stability index read?
Answer: 1.84

Question: For AQLQALRQKEVDFCISLTRERFME [L18T], which protein stability index is on record?
Answer: 2.24

Question: With AQLQALRQKEVDFCISLLRERFMP [E24P] as the variant, how does the protein stability index read?
Answer: 1.31

Question: With AQLQALRVKEVDFCISLLRERFME [Q8V] as the variant, how does the protein stability index read?
Answer: 3.32

Question: With AQLQALRQKEVDFCICLLRERFME [S16C] as the variant, how does the protein stability index read?
Answer: 3.15

Question: Which protein stability index does the source give for AQLQALRQKEVDFCISLLRERSME [F22S] here?
Answer: 1.31

Question: Which protein stability index does the source give for AQLQALRHKEVDFCISLLRERFME [Q8H] here?
Answer: 3.1

Question: For AQLQALRQKEVDFCISLNRERFME [L18N], which protein stability index is on record?
Answer: 1.97

Question: With AQLQALRQKEVDFWISLLRERFME [C14W] as the variant, how does the protein stability index read?
Answer: 1.96

Question: For AQLQALRQKFVDFCISLLRERFME [E10F], which protein stability index is on record?
Answer: 2.15

Question: With AQLQALRKKEVDFCISLLRERFME [Q8K] as the variant, how does the protein stability index read?
Answer: 1.65

Question: With AQLQALRQKEVDLCISLLRERFME [F13L] as the variant, how does the protein stability index read?
Answer: 1.64

Question: For AQLQALRQKEVDFCIQLLRERFME [S16Q], which protein stability index is on record?
Answer: 3.15

Question: For AQLQALRQKEVDFCSSLLRERFME [I15S], which protein stability index is on record?
Answer: 1.67

Question: With NQLQALRQKEVDFCISLLRERFME [A1N] as the variant, how does the protein stability index read?
Answer: 2.73

Question: With AQLQALRQKEVDFCISLLRERFMV [E24V] as the variant, how does the protein stability index read?
Answer: 2.95

Question: Which protein stability index does the source give for AQLQALRQKEVDFCISTLRERFME [L17T] here?
Answer: 1.8

Question: Which protein stability index does the source give for AELQALRQKEVDFCISLLRERFME [Q2E] here?
Answer: 1.48

Question: With AQLQALRQKEVDFCISLLRERFMM [E24M] as the variant, how does the protein stability index read?
Answer: 4.47

Question: For AQLQALRQKEWDFCISLLRERFME [V11W], which protein stability index is on record?
Answer: 2.14

Question: For AQLQALRQKEVDDCISLLRERFME [F13D], which protein stability index is on record?
Answer: 1.55

Question: For AQLQALRQKEVDFIISLLRERFME [C14I], which protein stability index is on record?
Answer: 2.68

Question: Which protein stability index does the source give for AQMQALRQKEVDFCISLLRERFME [L3M] here?
Answer: 2

Question: For AQLQALRQKEVDFCISLLREKFME [R21K], which protein stability index is on record?
Answer: 2.5

Question: For AQLQALRQKEVDFCYSLLRERFME [I15Y], which protein stability index is on record?
Answer: 2.3

Question: For AQLQALRQKEVDFYISLLRERFME [C14Y], which protein stability index is on record?
Answer: 2.16

Question: For AQLQALRQKEVVFCISLLRERFME [D12V], which protein stability index is on record?
Answer: 4.29

Question: With AQLQALRQKEVDFCISLLRERDME [F22D] as the variant, how does the protein stability index read?
Answer: 2.24

Question: Which protein stability index does the source give for AQLQALRQKEVDFCASLLRERFME [I15A] here?
Answer: 1.62

Question: Which protein stability index does the source give for AQLQALRQKEVTFCISLLRERFME [D12T] here?
Answer: 2.66

Question: With AQLQALRQNEVDFCISLLRERFME [K9N] as the variant, how does the protein stability index read?
Answer: 1.93

Variants of: B2
Experiment: as above
Conditions: c terminus: a fixed tail appended

Question: Which protein stability index does the source give for AGHDYPRAAYQQVIQPALPGQPLP [Y1A] here?
Answer: 3.77

Question: With CGHDYPRAAYQQVIQPALPGQPLP [Y1C] as the variant, how does the protein stability index read?
Answer: 2.52

Question: For DGHDYPRAAYQQVIQPALPGQPLP [Y1D], which protein stability index is on record?
Answer: 4.19

Question: Which protein stability index does the source give for EGHDYPRAAYQQVIQPALPGQPLP [Y1E] here?
Answer: 4.63

Question: Which protein stability index does the source give for FGHDYPRAAYQQVIQPALPGQPLP [Y1F] here?
Answer: 2.12

Question: For GGHDYPRAAYQQVIQPALPGQPLP [Y1G], which protein stability index is on record?
Answer: 3.63

Question: With HGHDYPRAAYQQVIQPALPGQPLP [Y1H] as the variant, how does the protein stability index read?
Answer: 4.03

Question: For IGHDYPRAAYQQVIQPALPGQPLP [Y1I], which protein stability index is on record?
Answer: 3.52

Question: Which protein stability index does the source give for KGHDYPRAAYQQVIQPALPGQPLP [Y1K] here?
Answer: 3.79

Question: For LGHDYPRAAYQQVIQPALPGQPLP [Y1L], which protein stability index is on record?
Answer: 3.95

Question: For MGHDYPRAAYQQVIQPALPGQPLP [Y1M], which protein stability index is on record?
Answer: 3.31

Question: With NGHDYPRAAYQQVIQPALPGQPLP [Y1N] as the variant, how does the protein stability index read?
Answer: 4.21

Question: For PGHDYPRAAYQQVIQPALPGQPLP [Y1P], which protein stability index is on record?
Answer: 4.1

Question: Which protein stability index does the source give for QGHDYPRAAYQQVIQPALPGQPLP [Y1Q] here?
Answer: 3.73

Question: For RGHDYPRAAYQQVIQPALPGQPLP [Y1R], which protein stability index is on record?
Answer: 3.71

Question: Which protein stability index does the source give for SGHDYPRAAYQQVIQPALPGQPLP [Y1S] here?
Answer: 3.75

Question: Which protein stability index does the source give for TGHDYPRAAYQQVIQPALPGQPLP [Y1T] here?
Answer: 3.54

Question: Which protein stability index does the source give for VGHDYPRAAYQQVIQPALPGQPLP [Y1V] here?
Answer: 4.01

Question: With WGHDYPRAAYQQVIQPALPGQPLP [Y1W] as the variant, how does the protein stability index read?
Answer: 2.68

Question: For YAHDYPRAAYQQVIQPALPGQPLP [G2A], which protein stability index is on record?
Answer: 2.41

Question: Which protein stability index does the source give for YCHDYPRAAYQQVIQPALPGQPLP [G2C] here?
Answer: 1.67

Question: Which protein stability index does the source give for YDHDYPRAAYQQVIQPALPGQPLP [G2D] here?
Answer: 3.43

Question: Which protein stability index does the source give for YEHDYPRAAYQQVIQPALPGQPLP [G2E] here?
Answer: 3.78

Question: With YFHDYPRAAYQQVIQPALPGQPLP [G2F] as the variant, how does the protein stability index read?
Answer: 3.36

Question: With YHHDYPRAAYQQVIQPALPGQPLP [G2H] as the variant, how does the protein stability index read?
Answer: 2.46

Question: Which protein stability index does the source give for YIHDYPRAAYQQVIQPALPGQPLP [G2I] here?
Answer: 1.97

Question: With YKHDYPRAAYQQVIQPALPGQPLP [G2K] as the variant, how does the protein stability index read?
Answer: 3.69

Question: Which protein stability index does the source give for YLHDYPRAAYQQVIQPALPGQPLP [G2L] here?
Answer: 2.6

Question: Which protein stability index does the source give for YMHDYPRAAYQQVIQPALPGQPLP [G2M] here?
Answer: 2.15

Question: With YNHDYPRAAYQQVIQPALPGQPLP [G2N] as the variant, how does the protein stability index read?
Answer: 2.46

Question: Which protein stability index does the source give for YPHDYPRAAYQQVIQPALPGQPLP [G2P] here?
Answer: 3.42

Question: For YQHDYPRAAYQQVIQPALPGQPLP [G2Q], which protein stability index is on record?
Answer: 2.62

Question: Which protein stability index does the source give for YRHDYPRAAYQQVIQPALPGQPLP [G2R] here?
Answer: 3.52

Question: Which protein stability index does the source give for YSHDYPRAAYQQVIQPALPGQPLP [G2S] here?
Answer: 2.56

Question: For YTHDYPRAAYQQVIQPALPGQPLP [G2T], which protein stability index is on record?
Answer: 2.27

Question: For YVHDYPRAAYQQVIQPALPGQPLP [G2V], which protein stability index is on record?
Answer: 1.83

Question: For YWHDYPRAAYQQVIQPALPGQPLP [G2W], which protein stability index is on record?
Answer: 2.03

Question: For YYHDYPRAAYQQVIQPALPGQPLP [G2Y], which protein stability index is on record?
Answer: 2.38

Question: Which protein stability index does the source give for YGADYPRAAYQQVIQPALPGQPLP [H3A] here?
Answer: 2.05

Question: Which protein stability index does the source give for YGCDYPRAAYQQVIQPALPGQPLP [H3C] here?
Answer: 1.86

Question: Which protein stability index does the source give for YGDDYPRAAYQQVIQPALPGQPLP [H3D] here?
Answer: 2.02

Question: For YGEDYPRAAYQQVIQPALPGQPLP [H3E], which protein stability index is on record?
Answer: 2.5

Question: With YGFDYPRAAYQQVIQPALPGQPLP [H3F] as the variant, how does the protein stability index read?
Answer: 2.08

Question: Which protein stability index does the source give for YGGDYPRAAYQQVIQPALPGQPLP [H3G] here?
Answer: 4.19

Question: Which protein stability index does the source give for YGIDYPRAAYQQVIQPALPGQPLP [H3I] here?
Answer: 1.83

Question: Which protein stability index does the source give for YGKDYPRAAYQQVIQPALPGQPLP [H3K] here?
Answer: 2.5

Question: For YGLDYPRAAYQQVIQPALPGQPLP [H3L], which protein stability index is on record?
Answer: 1.86

Question: Which protein stability index does the source give for YGMDYPRAAYQQVIQPALPGQPLP [H3M] here?
Answer: 1.77

Question: Which protein stability index does the source give for YGNDYPRAAYQQVIQPALPGQPLP [H3N] here?
Answer: 1.83

Question: With YGPDYPRAAYQQVIQPALPGQPLP [H3P] as the variant, how does the protein stability index read?
Answer: 4.18

Question: For YGQDYPRAAYQQVIQPALPGQPLP [H3Q], which protein stability index is on record?
Answer: 2.04

Question: For YGRDYPRAAYQQVIQPALPGQPLP [H3R], which protein stability index is on record?
Answer: 2.19

Question: Which protein stability index does the source give for YGSDYPRAAYQQVIQPALPGQPLP [H3S] here?
Answer: 2.2

Question: Which protein stability index does the source give for YGTDYPRAAYQQVIQPALPGQPLP [H3T] here?
Answer: 1.73

Question: For YGVDYPRAAYQQVIQPALPGQPLP [H3V], which protein stability index is on record?
Answer: 2.4

Question: With YGWDYPRAAYQQVIQPALPGQPLP [H3W] as the variant, how does the protein stability index read?
Answer: 1.69

Question: For YGYDYPRAAYQQVIQPALPGQPLP [H3Y], which protein stability index is on record?
Answer: 1.74

Question: For YGHAYPRAAYQQVIQPALPGQPLP [D4A], which protein stability index is on record?
Answer: 1.55

Question: For YGHCYPRAAYQQVIQPALPGQPLP [D4C], which protein stability index is on record?
Answer: 1.8

Question: With YGHEYPRAAYQQVIQPALPGQPLP [D4E] as the variant, how does the protein stability index read?
Answer: 1.81

Question: Which protein stability index does the source give for YGHFYPRAAYQQVIQPALPGQPLP [D4F] here?
Answer: 1.56

Question: For YGHGYPRAAYQQVIQPALPGQPLP [D4G], which protein stability index is on record?
Answer: 2.05

Question: Which protein stability index does the source give for YGHHYPRAAYQQVIQPALPGQPLP [D4H] here?
Answer: 1.94
